Measurements published in publication PMC10815899.

Experiments:
[1] = molecular target: GAPDH present on the surface of N. glabratus cells (N. glabratus (endogenous in CBS138 / ATCC 2001)); assay: SEC; Superdex 200 HR 10/50, calibrated with molecular mass standards, 0.5 mL/min; buffer 20 mM Tris-HCl pH 6.7 (methods) or 50 mM NaH2PO4, 150 mM NaCl pH 7.0
[2] = molecular target: epithelial adhesin 6 of N. glabratus (N. glabratus (endogenous)) (UniProt Q6FX55); assay: BLI; Octet N1; Epa6 immobilised on an AR2G biosensor; NgGAPDH 100–1000 nM; Langmuir 1:1 model
[3] = molecular target: cytoplasmic Nakaseomyces glabratus glyceraldehyde 3-phosphate dehydrogenase (N. glabratus (endogenous in CBS138 / ATCC 2001)); assay: SEC; Superdex 200 HR 10/50, calibrated with molecular mass standards, 0.5 mL/min; buffer 20 mM Tris-HCl pH 6.7 (methods) or 50 mM NaH2PO4, 150 mM NaCl pH 7.0
[4] = molecular target: vitronectin (Homo sapiens) (UniProt P04004); conditions: cited from earlier work
[5] = molecular target: GAPDH on the surface of C. albicans cells (C. albicans (endogenous in ATCC 10231)) (UniProt Q5ADM7); assay: whole-cell binding assay with antibody blocking (SA-HRP/TMB); C. albicans hyphae in MaxiSorp wells (10^6 cells per well) or N. glabratus cells in tubes (3 × 10^7 per tube), pre-incubated with polyclonal anti-ScGAPDH antibody (1 µg/mL), then 150 nM biotin-labeled VTR or HPG, 1 h at 37 °C
[6] = molecular target: GAPDH present on the surface of N. glabratus cells (N. glabratus (endogenous in CBS138 / ATCC 2001)); assay: as above
[7] = molecular target: cytoplasmic Nakaseomyces glabratus glyceraldehyde 3-phosphate dehydrogenase (N. glabratus (endogenous in CBS138 / ATCC 2001)); assay: BLI; Octet N1; GAPDH amine-coupled on an AR2G biosensor; VTR or HPG 31–500 nM in solution; Langmuir 1:1 model
[8] = molecular target: recombinant Candida albicans glyceraldehyde 3-phosphate dehydrogenase (C. albicans) (UniProt Q5ADM7); assay: as above
[9] = molecular target: cytoplasmic Nakaseomyces glabratus glyceraldehyde 3-phosphate dehydrogenase (N. glabratus (endogenous in CBS138 / ATCC 2001)); assay: SPR; Biacore 3000; GAPDH amine-coupled on a CM5 chip; VTR 10–500 nM, 30 µL/min, 25 °C, HBS buffer (10 mM HEPES, 150 mM NaCl, 0.005% P20, pH 7.4); Langmuir 1:1 model with baseline drift
[10] = molecular target: recombinant Candida albicans glyceraldehyde 3-phosphate dehydrogenase (C. albicans) (UniProt Q5ADM7); assay: as above

vitronectin (Homo sapiens), sequence (P04004 399-478): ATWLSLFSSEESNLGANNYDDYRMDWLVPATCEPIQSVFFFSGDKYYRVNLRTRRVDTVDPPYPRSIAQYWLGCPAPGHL

Substance | percent decrease of binding to cells with anti-ScGAPDH antibody [5] | percent decrease of binding to cells with anti-ScGAPDH antibody [6] | Kd [7] | koff [7] | kon [7] | Kd [8] | koff [8] | kon [8] | also measured
GAPDH present on the surface of N. glabratus cells (enzyme) |  |  |  |  |  |  |  |  | stoichiometry N [1]: 4
cytoplasmic Nakaseomyces glabratus glyceraldehyde 3-phosphate dehydrogenase (enzyme) |  |  |  |  |  |  |  |  | Kd [2]: 7 to 14 nM; stoichiometry N [3]: 4
enolase (from UniProt P30575) |  |  |  |  |  |  |  |  | Kd [4]: 40 nM
human plasminogen (natural protein) | 19% | 36% | 8.69 nM | 0.000649 s⁻¹ | 74600 M⁻¹ s⁻¹ | 150 nM | 0.00496 s⁻¹ | 33000 M⁻¹ s⁻¹ | 
human vitronectin (natural protein) | 16% | 12% | 33.9 nM | 0.00172 s⁻¹ | 50700 M⁻¹ s⁻¹ | 20.6 nM | 0.000799 s⁻¹ | 38900 M⁻¹ s⁻¹ | Kd [9]: 48 nM; koff [9]: 0.00183 s⁻¹; kon [9]: 38100 M⁻¹ s⁻¹; Kd [10]: 44.2 nM; koff [10]: 0.000619 s⁻¹; kon [10]: 14000 M⁻¹ s⁻¹
